Experimental data published in publication PMC6731095, “Regulation of Eag1 gating by its intracellular domains” (eLife, 2019).

How the values were obtained:
Calmodulin = target: T1, Calmodulin (human, UniProt P0DP24 1-149); assay: cryo-EM structure; Eag1 Δ3–13 and CaM co-expressed and co-purified; 20 mM Tris pH 8, 300 mM KCl, 1 mM CaCl2, 0.05% digitonin; 5 mg/ml; C4 symmetry imposed; two conformations; conditions: both partners purified
T1 construct: Calmodulin, Homo sapiens, Uniprot P0DP24; Calcium (1 mM CaCl2) was present throughout; also called CaM; source: HEK293S GnTI-, infected with BacMam baculovirus together with Eag1 Δ3–13 baculovirus, co-purified with Eag1 Δ3–13

[1] = target: the molecule itself; assay: as above

B1: Eag1 Δ3–13 (rat Kv10.1/Eag1/Kcnh1, residues 3–13 deleted, C-terminal unstructured region 773-886 removed) (natural protein, UniProt Q63472 1-962, looked up)
chain: MTQNTFLENIVRRSNDTNFVLGNAQIVDWPIVYSNDGFCKLSGYHRAEVMQKSSACSFMYGELTDKDTVEKVRQTFENYEMNSFEILMYKKNRTPVWFFVKIAPIRNEQDKVVLFLCTFSDITAFKQPIEDDSCKGWGKFARLTRALTSSRGVLQQLAPSVQKGENVHKHSRLAEVLQLGSDILPQYKQEAPKTPPHIILHYCVFKTTWDWIILILTFYTAILVPYNVSFKTRQNNVAWLVVDSIVDVIFLVDIVLNFHTTFVGPAGEVISDPKLIRMNYLKTWFVIDLLSCLPYDVINAFENVDEGISSLFSSLKVVRLLRLGRVARKLDHYIEYGAAVLVLLVCVFGLAAHWMACIWYSIGDYEIFDEDTKTIRNNSWLYQLALDIGTPYQFNGSGSGKWEGGPSKNSVYISSLYFTMTSLTSVGFGNIAPSTDIEKIFAVAIMMIGSLLYATIFGNVTTIFQQMYANTNRYHEMLNSVRDFLKLYQVPKGLSERVMDYIVSTWSMSRGIDTEKVLQICPKDMRADICVHLNRKVFKEHPAFRLASDGCLRALAMEFQTVHCAPGDLIYHAGESVDSLCFVVSGSLEVIQDDEVVAILGKGDVFGDVFWKEATLAQSCANVRALTYCDLHVIKRDALQKVLEFYTAFSHSFSRNLILTYNLRKRIVFRKISDVKREEEERMKRKNEAPLILPPDHPVRRLFQRFRQQKEARLAAERGGRDLDDLDVEKGNALTDHTSANHSLVKASVVTVRESPATPVSFYPIPEQTLQATVLEVKHELKEDIKALNAKMTSIEKQLSEILRILMSRGSSQSPQDTCEVSRPQSPESDRDIFGAS
notes: Kv10.1/Eag1/Kcnh1, Rattus norvegicus, Uniprot Q63472; whole channel with residues 3-13 of the PAS loop deleted and the C-terminal unstructured region 773-886 removed; The GFP tag was removed with PreScission protease; also called calmodulin insensitive mutant; not shown: GFP, C-terminal, cleaved; His6, C-terminal, cleaved
For B1, the binding result (Calmodulin) was “binds” and the “stoichiometry N” value [1] was 4.
